Source: the nanobody polyreactivity screen of Harvey et al. (2022)

Assay: yeast display, Sf9 membrane polyspecificity reagent, FACS + sequencing; frameworks hold sequencing errors
Procedure, shortened: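 After 36–48 hours of galactose induction, yeast (Saccharomyces cerevisiae BJ5465) displaying a synthetic nanobody library were stained at 4 °C for 1 hour with 10% biotinylated, detergent-solubilized Sf9 membrane reagent. Streptavidin microbeads enriched the stained cells before FACS sorting into low and high (top ~1%) gates on anti-HA and streptavidin fluorescence. Each clone's polyreactivity label reflects its gate of origin.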

Row | Sequence | polyreactivity (PSR sort gate)
1 | QVQLVESGGGLVQAGGSLRLICAASGSTLYRYAMGWYRPAPGKERELVAAISSAGSTHYADSVKGRFTISRDNAKNTVYLQMNSLKPEDTAVYYCAAKRYLKYGYWGQGTQVTVSS | high polyreactivity
2 | QVQLVESRGGLVQAGGSLRLSCAASGPTFRNTAMGWSRQAPGKDREFVAVISNTGGSTYYADSVKGRFTISRDNAKNTVYLQMNSLKAEDTAVYYCGVRPRYSQYYYWGQGTQVTVSS | high polyreactivity
3 | QVQLVESGGGLVQAGGSLRLSCAASGFTFNTYAMGWYRQAPGKERELVAAITTSGGSTYYADSVKGRFTISRDNAKNTVYLQMNSLKPEDTAVYSCAAKSGRGVVRGRDDYWGQGTQVTVSS | high polyreactivity
4 | QFQLVESGGGLVQAGGSLRLSCAASGYIFLRNAMGCYRQAHGKERELVAAIRLTGGSTYYADSVKGRFTISRDNAKNTVYLQMNSLKPEDTAVYYCAKRSYTGYEYWGQGTQVTVSS | low polyreactivity
5 | QVQHVESGGGLVQARGSLRLSCSASGGTFSVYPMGWSRQAPVKERELLADISWSDASTYYADSVKGRFTISRDNAKNTVYLQMNSLKPEDTAVYYCAVSRQSGKGGSKELNDYWVQGTQVTVSS | low polyreactivity
6 | QVQLVESGGGLVQAGGSLSLSCAASGRTFSYYTMGWYRQAPGKERELVARISNRGTNTYYADSVKGRFTISRDNAKNTVYLQMNSLTPEDTAVYYCAKYYYTSIVGYDSWGQGTQVTVSS | low polyreactivity
7 | QVHLVESGGGLVQAGGSLRLSCAASGFTFSTYAMGVSRQAPGKEREWVAAISSGGTTNYADSEKGRFTISRDNAMNTVYLQMNCLKPEDTAVYYCATGYGRWTAYSTSYDYWGQGTQVTVSS | low polyreactivity
8 | QVQLVESGGGLVQAGGSLRLSCAASGRIVYRYAMGWYRQAPGKERELVAAISSGGSTYYADSVKGRFTISRDNAKNTVYLQMNSLKPEDTAVYYCAATWGRGTYYLYYYWGQGTQVTGSS | high polyreactivity
9 | QVQHVESGGGLVQAGGSLRLSCAASVITFYGYTMGWYRQAPGKERELVARIRSRSTSTYYADSVKGRFTISRDNAKNTVDLQMNSLKPEDTAVYYCNADYTNPGSYRKYDYWGQGTQVTVSS | low polyreactivity
10 | QVQLVESGGGLVQAGGSLRLSCAASGFTFYLYTIGWYRQAPWKERELVATITSDGGTNYADSVKVRFTISRDNAKNTLYLQMNSLKPEDTAVYYCNAASRRGSRKQAKYDYWGQGTQVTVSS | low polyreactivity
11 | QVQLVESGGGLVQAGGSLRLSCAASGSIFEPYAMGLYRQAPGKERELVAAIRWSGGSTYYADSVKGRFTISRDNAKNTVYLQMNSLKPEDTAVYYCAKYFPAGYYYWGQGTQVTVSS | low polyreactivity
12 | QVQLVESGGGLVQAGGSLRLSCAASGSIIGDNTMGWYRPAPGKERELVAAISSSGSTYYADSVKGRFTISRDNAKNTVYLQMNSLKPEDTAVYYCAAYDYGHVEYGYWGQGSQVTVSS | low polyreactivity
13 | QVHLVESGGGLVQAGGSLRLSCAASGGLFTSYDMGWYRQEPGKEREFVAGISDSGGSTYYADSVKGRFTISRDNAKNTVYLQMNSLKPEVTAVYYCAVESYRRYYYWGQGTQVTVSS | high polyreactivity
14 | QVQLVESGGGLVQAGGSLRLSCAASGITFVNNSRGCYRQAPVKEREFVAAISQGGGSTYYADSVKGRFTISRDNAKYTVYLQMNSLKPEDTAVYYCAAEIPRWWRFGYWGQGTQVTVSS | low polyreactivity
15 | QVQLVESGGGLVQAGGSLRLSCAASGRTFDGNVMGWYRQAPGKERELVAAITASGGRTYYADSVKGRFTISRDNAKNTVYLQMNSLKPEDTAVYFCAADPTYLRTLRFGSYDYWGQGTQVTVSS | high polyreactivity
16 | QVQLVESGGGLVQAGGSLRLSCAASGGTFRVYAMGWYRQAPGKERELFAAISSGGSTNYADSVKGRFTISRDNAKNTVYLQMNSLKPEDTAVYYCNAKYRYRFARSPIYYYWGQGTQVTVSS | high polyreactivity
17 | QVQLVESGGGLVQAGGSLRLSCAASGYTFIVNAMGWYRQAPGKERELVAAISRSGSSTRYADSVKWRFTISRDNAKNTVYLQMNSLKPEDTAVYYCGADLYSSEGRYYYWGQGTQVTVST | high polyreactivity
18 | QVQLVESGGGLVQAGGSLRLSCAASGSIFLYYAMGWYRQAPGKERELVAAISYSGASTYYADSVKGRFTISRDNAKNTVYLQMNSLKPEDTAVYYCARDYGQYVGEGCYWGQGTQVTVSS | low polyreactivity
19 | QVQLVESGGGLVQGGGSLRLSCAASGRIFLRNAMGSYRQAPGKERELVATITSRGCSTYYADSVKGRFTISRDNAKNTVYLQMNSLKPEDTAVYYCAAYPEYVSGAWYDYWGQGTQVNVSS | low polyreactivity
20 | QVQLVESGGGLVQAGGSLRLSCAASGSIFYWYAMGWYRQAPGKERELVAAISRNGGNTYYADSVKGRFTISRDNAKNTVYLQMNSLKPEDTAVYYCAVAGTVLSHMGYWGQGTQVTVSS | low polyreactivity
21 | QVQLVESGGGLVQAGGSLRLSCAASGRIFYINALGWYRQAPGKERELVASITGSGDSTYYADSVKGRFTISRDNAKNTVELQMNSLKPEDTAVYYCAARTYYYYGPRYYYWGQGTQVTVSS | low polyreactivity
22 | QVQLVYSGGGLVQAGGSLRLSCAASGRTSWIKAMGWYRTAPGKERQLVAAIRYSGRTYYADSVKGRFTISRDNAKNTVYLQMNSLKPEDYGVYYCAAVVGGYETGRYYYWGQGTQVTVSS | high polyreactivity

Row | Sequence | polyreactivity (PSR sort gate)
23 | QVQLVESGGGLVQAGGSLRLSCAASGRIFYVYAMGWYRQAPGKEREFVAAITRRSGSTYYADSVKGRFTISRDNAKNTVYFQMKSVKPEDTAVYSCNARLKYAIPQVPPYDYWGQGTQVTVSS | high polyreactivity
24 | QVQLVESGGGLVQAGGSLRLSSAASGFTFSGYAMGWYRQAPVKERELVAAISSSGASTYYADSVKGRFTISRDNAKNTVYLQIHSLKPEDTAVYYCAAGTRLSDGYYWGQGTQVTVSS | high polyreactivity
25 | QVQLVESGGGLVQAGGSLRLSCAASGSTFSRNAMGWYRQAPGKERELVAAISRRGGSTYYADSVKGRFTISRDNAKNTVYLQMNSLKPEDTAVYYCNRDSSYKNNYDYWGQGTQVTVSS | high polyreactivity
26 | QVQLVESGGGLVQAGGSLRLSCAASGFIFRYYAMGWYRQEPGKERELVAAISGSGGSKYYADSVKGRFTISRDNAKNNVYLQMNSLKQEDTAVYYFAKSYGSHRKIRTSFGYWGQGTQVTVSS | high polyreactivity
27 | QVQLVESGGGLVQAGGSLRLSCAASGRTFYYNAMGWYRQAPGKERELVAVITRGSTYYADSVKGRFSISRDNAKNTVYLQMKSLKPEDTAVYYCCKYRHYHRGYDYWGQGTQVTVSS | high polyreactivity
28 | QVQLVESGGGLVQAGGSLRLSCAASGSTFYYYTMGWYRQAPGKERELVARITRSGGTTYYADSVKGRFTISRDNAKNTVYLQMNSLKPEDTAVYYCAARRYGYTSITWYDYWGQGTLVTVSS | high polyreactivity
29 | QVQLVESGGGLVQAGGSLRLSCAASGSTLYPYDMGWYRQAPGKERELVAAIDSGGSTNYADSVKGRFTISRDNAKNTVYLQMNSLKPEDTAVYYCAADASGENDYWGQGTQVTVSS | low polyreactivity
30 | QVQLVESGGGLVQAGGSVRLSCAASGSTIPPKVMGWYREAPGKEREWVAAISWGGSSTYYADSVKGRFPISRDHAKNTVFVQKNCLQREETAVYYCNAEYRSPVYWWYYEYDYWGQGTQVTVSA | high polyreactivity
31 | QVQLVDSGGGIVQAGGSLRLSCAASGLTFSDYAMGWYRQAPGKEREFVAAITRNGGSTRYADSVKGRFTISRDNAKNTVYLQMNSLKPEDTAVDYCATDVGFGSKQRPHRPGYGYWGQGTQVTVSS | low polyreactivity
32 | QVQLVESGGGLVQAGGSLRLSCAASGSTFFYNAMGWYRQAPGKERELVAAISWSGGRTYYADSVKGRFTISRDNAKNTVYLQMNSLKPEDTAVYYCNTVVSKYYKVGFGSWGHGTQVTVSS | high polyreactivity
33 | QVQLVESGGGLVQAGGSLRLSCAATGRISFRILWDGIDRRLGKKGSWLPLLTNTGSTNYADSVKARFTISRDNAKNTVYLQMNSLKPEDTAVYYCNADPTGGSSYPAYFEYDYWGQGTQGTVSS | low polyreactivity
34 | QVQLVESGGGLVQAGGRLRLICAASGRIYGYNTMGWYRQAPGKERDFDAAINSGGRTYYADSVKGRFTISRDNAKNTVYLQMNSLKPEDTAVYYCAAGKGRWISGLYYGARYDYWGQGTQVTVSS | high polyreactivity
35 | QVPLVESGGGLVEAGGSLRLSCDASGGIFRGYAKGWYRQAPGKERDLVAAISRGGGSTYYADSVKGRFTISRDNAKNTVYLQLNSLKPEDTAVYYCAAIYTRVYDPVTEFYYWGQGTQVTVSS | high polyreactivity
36 | QVQLVESGGGLVQAGGSLRLSCAASGSIFDVYTMGWSRQAPGKERELVAAISKRSGRTYYADSVKGRFTISRDNAKNTVYLQMNSLKPEDTAVYYCAARGYPTTAVTYDYWGQGTQVTVSS | low polyreactivity
37 | QVQLVESGGGLVQAGGSLRLSCAPSGFIFDYNAMGWYRQAPGKERELVAAISISGGGTYYADSVKGRFTISRDNAKNTVYLQMNSLKPEDTAVYYCATAGRYDAYDYWGQGTQVTVSS | low polyreactivity
38 | QVQLVESVLGLVQAGGSLRLICDASGSIFGYNVIGWYRQAPGKERELVAAITGRGDSTYYADSVKGRFTISRDNAKNTVYLQMNSLKPEDTAVYYCAAYPNQSEYYYWGQGTQVTVSS | low polyreactivity
39 | QVQLVESGGGLVQAGGSLRLSCAASGRIFNYNAMGWYRQAPGKERELVAVITSGDSTNYADSVKGRFTISRDNAKNTVYLQMNSLKPVDTAVYYCAAEYYSIRYGPNSIEVYGMDYWGQGTQVTVSS | low polyreactivity
40 | QVQLVESGGGLVKEGGSLRLSCAASGSIYYENTMGWYRQAPGKERELVASISCGGSTYADSVKGRFTISRDNAKNSVYLQMYSLKAEDSAVYYCNADSSTEYDYWGQGTQVTVSS | low polyreactivity
41 | QVQLVESGGGLLQAGGSLSLSCAASGRTFVPYTMGWYRPAPGKERELVAAISWSDGTTYYADSVKGRFTISRDNAKNTVYLQMNSLKPEDTAVYYCNDDVYLFNYFGGWYYAGYDYWGQGTQVTVSS | high polyreactivity
42 | QVQIVESGGGLVQAGGSLRLSCAASGLIIPFYAMGWYRQAPGKERELVAAISWSAGSTYYADSVKGRFTISRDNAKNTVYLQMNSLKPEDTAGYYCAATAYYYYDYDYWGQGTQVTVSS | low polyreactivity
43 | QVQLVESGGGLVQAGGSLRLSCAASGIIFIVNSMGWYRQAPGKERELVADISENGGDTYYADSVKGRFTISRDNAKNTVYLQMNSLKPEDSAVYYCAKSGEPYTRFDYWGQGTQVTVSS | low polyreactivity
